Measured values: patent EP4725969A1 (Latticon (Suzhou) Biopharmaceuticals Co., Ltd., dated 2024)
Changes are numbered by the printed parent chain. Names and notes keep the numbering of the source.

B1: Hu2126-H2K1 (antibody, human IgG1, V domains shown)
VH: QVQLVQSGSELKKPGASVKVSCKASGYTFTDYSMHWVRQAPGQGLEWMGWINTETGEPTYADDFKGRFVFSLDTSVSTAYLQISSLKAEDTAVYFCVRVGRYDYAMDYWGQGTTVTVSS
VL: DIQMTQSPSSLSASVGDRVTITCKASQDVYTAVAWYQQKPGKAPKLLINSASYRYTGVPSRFSGSGSGTDFTLTISSLQPEDFATYYCQQHYSTPPTFGGGTKVEIK
B2: Hu2117HK-Mu29 (Fc fusion)
scFv: EVQLVESGGGLVQPGGSLRLSCAASGFTYSSYGMSWVRQAPGKGLEWVASISGGGSYTKYPDSVKGRFTISRDNSKNTLYLQMNSLRAEDTAVYYCARDYAGFFDVWGQGTLVTVSSGGGGSGGGGSGGGGSDIQMTQSPSSLSASVGDRVTITCRSSQSLLHSNGNTYLHWYQQKPGKAPKLLIYKVSNRFSGVPSRFSGSGSGTDFTLTISSLQPEDFATYFCSQSTHVPYTFGQGTKVEIK
notes: scFv-hIgG1 Fc; not shown: human IgG1 Fc
B3: Hu2117HK-Mu30 (Fc fusion, not shown: a dimerising Fc or GST; small tags and cut ends)
scFv: B2 scFv with L162V, H163D
notes: scFv-hIgG1 Fc
B4: Hu2117HK-Mu32 (Fc fusion)
scFv: B2 scFv with L162V, H163S
notes: as for B2
B5: Hu2117HK-Mu34 (Fc fusion)
scFv: B2 scFv with L162V, S226Q
notes: as for B2
B6: Hu2117HK-Mu35 (Fc fusion, name in Kabat numbering)
scFv: B2 scFv with L162V, S226L
notes: as for B2
B7: Hu2117HK-Mu36 (Fc fusion, name in Kabat numbering)
scFv: B2 scFv with L162V, S226M
notes: as for B2
B8: Hu2117HK-Mu38 (Fc fusion)
scFv: B2 scFv with S30N, S31N, L162V
notes: as for B2
B9: Hu2117HK-Mu39 (Fc fusion)
scFv: B2 scFv with S31N, L162V
notes: as for B2
B10: Hu2117HK-Mu40 (Fc fusion)
scFv: B2 scFv with S31D, L162V
notes: as for B2
B11: Hu2117HK-Mu41 (Fc fusion)
scFv: B2 scFv with S56N, T58A, L162V
notes: as for B2
B12: Hu2117HK-Mu42 (Fc fusion)
scFv: B2 scFv with G54S, L162V
notes: as for B2
B13: Hu2117HK-Mu43 (Fc fusion, name in Kabat numbering)
scFv: B2 scFv with A101D, L162V
notes: as for B2
B14: Hu2117HK-Mu44 (Fc fusion, name in Kabat numbering)
scFv: B2 scFv with A101E, L162V
notes: as for B2
B15: Hu2117HK-Mu45 (Fc fusion)
scFv: B2 scFv with A101I, L162V
notes: as for B2
B16: Hu2117HK-Mu46 (Fc fusion)
scFv: B2 scFv with A101N, L162V
notes: as for B2
B17: Hu2117HK-Mu47 (Fc fusion, name in Kabat numbering)
scFv: B2 scFv with A101Q, L162V
notes: as for B2
B18: Hu2117HK-Mu48 (Fc fusion)
scFv: B2 scFv with A101R, L162V
notes: as for B2
B19: Hu2117HK-Mu49 (Fc fusion)
scFv: B2 scFv with A101S, L162V
notes: as for B2
B20: Hu2117HK-Mu50 (Fc fusion)
scFv: B2 scFv with A101V, L162V
notes: as for B2
B21: Hu2117KH (Fc fusion)
scFv: DIQMTQSPSSLSASVGDRVTITCRSSQSLVHSNGNTYLHWYQQKPGKAPKLLIYKVSNRFSGVPSRFSGSGSGTDFTLTISSLQPEDFATYFCSQSTHVPYTFGQGTKVEIKGGGGSGGGGSGGGGSEVQLVESGGGLVQPGGSLRLSCAASGFTYSSYGMSWVRQAPGKGLEWVASISGGGSYTKYPDSVKGRFTISRDNSKNTLYLQMNSLRAEDTAVYYCARDYAGFFDVWGQGTLVTVSS
notes: not shown: human IgG1 Fc
B22: Mu2117HK (Fc fusion)
scFv: EVKIEESGGGLVKPGGSLKLSCAASGFTYSSYGMSWVRQTPEKRLEWVASISGGGSYTKYPDSVKGRFTISRDNAKNHLYLQMSSLRSEDTALYYCARDYAGFFDVWGAGTTVTVSSGGGGSGGGGSGGGGSDVVLTQTPLSLPVSLGDQASISCRSSQSLVHSNGNTYLHWYLQKPGQSPKLLIYKVSNRFSGVPDRFSGSGSGTDFTLKISRVEAEDLGVYFCSQSTHVPYTFGGGTKLEIK
notes: scFv-hIgG1 Fc fusion of mAb2117 V regions, VH-(G4S)3-VL; also called chimeric single-chain antibody control; not shown: human IgG1 Fc
B23: Mu2117KH (Fc fusion)
scFv: DVVLTQTPLSLPVSLGDQASISCRSSQSLVHSNGNTYLHWYLQKPGQSPKLLIYKVSNRFSGVPDRFSGSGSGTDFTLKISRVEAEDLGVYFCSQSTHVPYTFGGGTKLEIKGGGGSGGGGSGGGGSEVKIEESGGGLVKPGGSLKLSCAASGFTYSSYGMSWVRQTPEKRLEWVASISGGGSYTKYPDSVKGRFTISRDNAKNHLYLQMSSLRSEDTALYYCARDYAGFFDVWGAGTTVTVSS
notes: scFv-hIgG1 Fc fusion of mAb2117 V regions, VL-(G4S)3-VH; also called chimeric single-chain antibody control; not shown: human IgG1 Fc
B24: Hu2126-H2K1-L71-H72b-Mu10 (antibody, IgG1, V domains shown)
VH: B1 VH with E54G, V69T, F70I, L72R, V76K, F95Y
VL: B1 VL with K24R, S50A, Y53S, Y55P, H91Y
notes: IgG1/Cκ; also called 7172b-Mu10
B25: Hu2126-H2K1-L71-H72b-Mu11 (antibody, IgG1, V domains shown)
VH: B1 VH with E54G, V69T, F70I, L72R, V76K, F95Y
VL: B1 VL with K24R, S50D, Y53S, Y55P, H91Y
notes: IgG1/Cκ; also called 7172b-Mu11
B26: Hu2126-H2K1-L71-H72b-Mu12 (antibody, IgG1, V domains shown)
VH: B1 VH with E54G, V69T, F70I, L72R, V76K, F95Y
VL: B1 VL with K24R, S50E, Y53S, Y55P, H91Y
notes: IgG1/Cκ; also called 7172b-Mu12
B27: Hu2126-H2K1-L71-H72b-Mu13 (antibody, IgG1, V domains shown)
VH: B1 VH with E54G, V69T, F70I, L72R, V76K, F95Y
VL: B1 VL with K24R, S50K, Y53S, Y55P, H91Y
notes: IgG1/Cκ; also called 7172b-Mu13
B28: Hu2126-H2K1-L71-H72b-Mu14 (antibody, IgG1, V domains shown)
VH: B1 VH with E54G, V69T, F70I, L72R, V76K, F95Y
VL: B1 VL with K24R, S50L, Y53S, Y55P, H91Y
notes: IgG1/Cκ; also called 7172b-Mu14; Hu2126-7172b-Mu14
B29: Hu2126-H2K1-L71-H72b-Mu15 (antibody, IgG1, V domains shown)
VH: B1 VH with E54G, V69T, F70I, L72R, V76K, F95Y
VL: B1 VL with K24R, S50Q, Y53S, Y55P, H91Y
notes: IgG1/Cκ; also called 7172b-Mu15
B30: Hu2126-H2K1-L71-H72b-Mu16 (antibody, IgG1, V domains shown)
VH: B1 VH with E54G, V69T, F70I, L72R, V76K, F95Y
VL: B1 VL with K24R, S50R, Y53S, Y55P, H91Y
notes: IgG1/Cκ; also called 7172b-Mu16
B31: Hu2126-H2K1-L71-H72b-Mu17 (antibody, IgG1, V domains shown)
VH: B1 VH with E54G, V69T, F70I, L72R, V76K, F95Y
VL: B1 VL with K24R, Y53S, Y55P, H91Y
notes: IgG1/Cκ; also called 7172b-Mu17
B32: Hu2126-H2K1-L71-H72b-Mu18 (antibody, IgG1, V domains shown)
VH: B1 VH with E54G, V69T, F70I, L72R, V76K, F95Y
VL: B1 VL with K24R, S50W, Y53S, Y55P, H91Y
notes: IgG1/Cκ; also called 7172b-Mu18
B33: Hu2126-H2K1-L71-H72b-Mu19 (antibody, IgG1, V domains shown)
VH: B1 VH with E54G, V69T, F70I, L72R, V76K, F95Y
VL: B1 VL with K24R, S50Y, Y53S, Y55P, H91Y
notes: IgG1/Cκ; also called 7172b-Mu19
B34: Hu2126-H1K1 (antibody, human IgG1, V domains shown)
VH: QVQLQESGPGLVKPSETLSLTCTASGYTFTDYSMHWVRQPPGKGLEWMGWINTETGEPTYADDFKGRFTFSLDTSKNQASLKLSSVTAADTAVYFCVRVGRYDYAMDYWGQGTTVTVSS
VL: B1 VL

The binders below were run against T1, recombinant human HER2 extracellular domain protein (human, UniProt P04626 23-652) (assay: BLI, Protein A capture).
T1 construct: range 23-652; Range is printed for the immunogen/panning protein; also called ErbB2; recombinant HER2 protein

| Binder | Kd | koff | kon |
| --- | --- | --- | --- |
| B1 | 4.71 nM | 0.000469 s⁻¹ | 99600 M⁻¹ s⁻¹ |

Biological target: T1, recombinant human HER2 extracellular …
Assay: BLI, Protein A capture
Remark: another data set of the same source

| Binder | Kd | koff | kon |
| --- | --- | --- | --- |
| B2 | 7.62 nM | 0.000668 s⁻¹ | 87700 M⁻¹ s⁻¹ |
| B3 | 8.27 nM | 0.000301 s⁻¹ | 36400 M⁻¹ s⁻¹ |
| B4 | 6.09 nM | 0.000366 s⁻¹ | 60100 M⁻¹ s⁻¹ |
| B5 | 12.6 nM | 0.00117 s⁻¹ | 93500 M⁻¹ s⁻¹ |
| B6 | 59.8 nM | 0.0037 s⁻¹ | 61900 M⁻¹ s⁻¹ |
| B7 | 31.4 nM | 0.00198 s⁻¹ | 63200 M⁻¹ s⁻¹ |
| B8 | 12.1 nM | 0.00121 s⁻¹ | 100000 M⁻¹ s⁻¹ |
| B9 | 12.3 nM | 0.0012 s⁻¹ | 97700 M⁻¹ s⁻¹ |
| B10 | 11.9 nM | 0.000867 s⁻¹ | 72700 M⁻¹ s⁻¹ |
| B11 | 9.66 nM | 0.000603 s⁻¹ | 62400 M⁻¹ s⁻¹ |
| B12 | 33.5 nM | 0.00178 s⁻¹ | 53000 M⁻¹ s⁻¹ |
| B13 | 56.7 nM | 0.00406 s⁻¹ | 71700 M⁻¹ s⁻¹ |
| B14 | 42.5 nM | 0.0034 s⁻¹ | 80000 M⁻¹ s⁻¹ |
| B15 | 12.8 nM | 0.00126 s⁻¹ | 98000 M⁻¹ s⁻¹ |
| B16 | 10.3 nM | 0.000794 s⁻¹ | 77400 M⁻¹ s⁻¹ |
| B17 | 15.3 nM | 0.000828 s⁻¹ | 54300 M⁻¹ s⁻¹ |
| B18 | 12.1 nM | 0.00118 s⁻¹ | 97900 M⁻¹ s⁻¹ |
| B19 | 11.8 nM | 0.000761 s⁻¹ | 64500 M⁻¹ s⁻¹ |
| B20 | 16 nM | 0.0016 s⁻¹ | 100000 M⁻¹ s⁻¹ |

The binders below were run against T1, recombinant human HER2 extracellular … (assay: BLI (ForteBio)).

| Binder | Kd | koff | kon |
| --- | --- | --- | --- |
| B21 | 147 nM | 0.00381 s⁻¹ | 25900 M⁻¹ s⁻¹ |
| B22 | 76 nM | 0.00523 s⁻¹ | 68800 M⁻¹ s⁻¹ |
| B23 | 77.2 nM | 0.00545 s⁻¹ | 70600 M⁻¹ s⁻¹ |

Biological target: T1, recombinant human HER2 extracellular …
Assay: BLI, Protein A capture
Remark: another data set of the same source

| Binder | Kd | koff | kon |
| --- | --- | --- | --- |
| B24 | 3.38 nM | 0.000356 s⁻¹ | 105000 M⁻¹ s⁻¹ |
| B25 | 5.35 nM | 0.000482 s⁻¹ | 90100 M⁻¹ s⁻¹ |
| B26 | 6.74 nM | – | 78300 M⁻¹ s⁻¹ |
| B27 | 7.23 nM | 0.000707 s⁻¹ | 97800 M⁻¹ s⁻¹ |
| B28 | 0.825 nM | 8.31e-05 s⁻¹ | 101000 M⁻¹ s⁻¹ |
| B29 | 4.49 nM | – | 106000 M⁻¹ s⁻¹ |
| B30 | 5.77 nM | 0.000578 s⁻¹ | 100000 M⁻¹ s⁻¹ |
| B31 | 2.8 nM | 0.000276 s⁻¹ | 98500 M⁻¹ s⁻¹ |
| B32 | 7.96 nM | – | 124000 M⁻¹ s⁻¹ |
| B33 | 2.9 nM | 0.000314 s⁻¹ | 108000 M⁻¹ s⁻¹ |

Biological target: T1, recombinant human HER2 extracellular …
Assay: BLI, Protein A capture
Remark: another data set of the same source

| Binder | Kd | koff | kon |
| --- | --- | --- | --- |
| B34 | 19.1 nM | 0.0018 s⁻¹ | 94500 M⁻¹ s⁻¹ |
| B1 | 6.89 nM | 0.000581 s⁻¹ | 84300 M⁻¹ s⁻¹ |
